# Measurements published in patent publication US20110191904A1.
# Read-outs that look alike come from different tables or passages of the source.
# T1: Arabidopsis FAD2 (At3g12120) (Arabidopsis thaliana) (UniProt P46313)
# T1 sequence (looked up): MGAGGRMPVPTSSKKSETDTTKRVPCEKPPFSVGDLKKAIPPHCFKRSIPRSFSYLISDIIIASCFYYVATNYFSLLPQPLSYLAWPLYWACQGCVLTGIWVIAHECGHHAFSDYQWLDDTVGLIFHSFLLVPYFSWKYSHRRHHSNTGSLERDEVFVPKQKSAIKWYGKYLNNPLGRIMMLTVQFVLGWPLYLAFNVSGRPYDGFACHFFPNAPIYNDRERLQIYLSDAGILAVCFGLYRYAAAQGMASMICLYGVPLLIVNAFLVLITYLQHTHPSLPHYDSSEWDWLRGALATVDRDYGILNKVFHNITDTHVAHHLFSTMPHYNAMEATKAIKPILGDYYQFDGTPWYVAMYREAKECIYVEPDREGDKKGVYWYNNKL
# T2: Arabidopsis FAD3 (At2g29980) (Arabidopsis thaliana) (UniProt P48623)
# T2 sequence (looked up): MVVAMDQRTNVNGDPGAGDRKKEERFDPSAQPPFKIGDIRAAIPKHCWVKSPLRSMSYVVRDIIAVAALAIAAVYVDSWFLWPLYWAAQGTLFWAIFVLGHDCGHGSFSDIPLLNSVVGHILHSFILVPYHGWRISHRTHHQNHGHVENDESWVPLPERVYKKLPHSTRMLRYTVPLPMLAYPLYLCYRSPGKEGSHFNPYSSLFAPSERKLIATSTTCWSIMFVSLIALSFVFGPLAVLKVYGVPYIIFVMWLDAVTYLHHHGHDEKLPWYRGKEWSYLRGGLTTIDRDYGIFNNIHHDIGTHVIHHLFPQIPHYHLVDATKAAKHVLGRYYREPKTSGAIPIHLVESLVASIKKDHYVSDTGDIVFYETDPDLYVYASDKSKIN
# B1: soybean (Glycine max) cytochrome b5 GmCb5-C3 (protein)
# chain: MASNPKTLTFEEVAKHNNKKDCWIIINGKVYDITPFLDEHPGGDEVLLTSTGKDATIDFEDVGHSDSAIEMMEKYFIGKVDTSTLPPKVSHSLPQPTQTHGAGNQSSGFVVKILQFLLPLLILGLAFALQYYGQKKHASTS
# B2: Arabidopsis cytochrome b5 Cb5-C (At2g46650) (protein, Arabidopsis thaliana, UniProt Q9ZNV4 1-132, looked up)
# chain: MANLISFHDVAKHKCKNDCWILIHGKVYDISTFMDEHPGGDNVLLAVTGKDASIDFEDVNHSKDAKELMKKYCIGDVDQSTVPVTQQYIPPWEKESTAAETTKEESGKKLLIYLIPLLILGVAFALRFYNNK
# B3: Arabidopsis cytochrome b5 Cb5-E (At2g32720) (protein, Arabidopsis thaliana, UniProt O48845 1-134, looked up)
# chain: MGDEAKIFTLSEVSEHNQAHDCWIVINGKVYNVTKFLEDHPGGDDVLLSSTGKDATDDFEDVGHSESAREMMEQYYVGEIDPTTIPKKVKYTPPKQPHYNQDKTSEFIIKLLQFLVPLAILGLAVGIRIYTKSG
# B4: soybean (Glycine max) cytochrome b5 GmCb5-C2 (protein)
# chain: MGSKTKTFTFEEVAKHNHRKDCWIIVKGKVYDVTPFLDDHPGGDEVLVTATEKDATTDFEDIGHSDSATQMMEKYFVGEVDTNTLPAQVTSNNSVRQPTQAPPAYNNQSSGFVVKMLQYIVPLLILAFAFGLQYYGKKNKSTESEN
# Columns and labels:
# Assay in all cases: cell-based or functional assay
# [1] = molecular target: T1, Arabidopsis FAD2 (At3g12120) (Arabidopsis thaliana)
# [2] = molecular target: T2, Arabidopsis FAD3 (At2g29980) (Arabidopsis thaliana)
# [3] = molecular target: T2, Arabidopsis FAD3 (At2g29980) (Arabidopsis thaliana); remark: listed apart in the source
# [4] = molecular target: T1, Arabidopsis FAD2 (At3g12120) (Arabidopsis thaliana); remark: listed apart in the source
molecule,measurement,setting,value
Arabidopsis cytochrome b5 Cb5-B (At5g48810) (from UniProt Q9ZWT2 1-140),"16:2 content of cb5 mutant yeast co-expressing both, 15 C (GC-FID) (mol percentage of total fatty acids)",[1],1.3
same,"16:2 content of cb5 mutant yeast co-expressing both, 28 C (GC-FID) (mol percentage of total fatty acids)",[1],1.2
same,"18:2 content of cb5 mutant yeast co-expressing both, 15 C (GC-FID) (mol percentage of total fatty acids)",[1],7.4
same,"18:2 content of cb5 mutant yeast co-expressing both, 28 C (GC-FID) (mol percentage of total fatty acids)",[1],6
same,"18:3 content of cb5 mutant yeast co-expressing both, 15 C, 18:2 fed (GC-FID) (mol percentage of total fatty acids)",[2],11.8
same,"18:3 content of cb5 mutant yeast co-expressing both, 28 C, 18:2 fed (GC-FID) (mol percentage of total fatty acids)",[2],8.2
B1,"18:3 content of cb5 mutant yeast co-expressing both, 15 C, 18:2 fed (GC-FID) (mol percentage of total fatty acids)",[3],2
same,"18:3 content of cb5 mutant yeast co-expressing both, 28 C, 18:2 fed (GC-FID) (mol percentage of total fatty acids)",[3],2.6
B2,"16:2 content of cb5 mutant yeast co-expressing both, 15 C (GC-FID) (mol percentage of total fatty acids)",[4],1.2
same,"16:2 content of cb5 mutant yeast co-expressing both, 28 C (GC-FID) (mol percentage of total fatty acids)",[4],0.9
same,"18:2 content of cb5 mutant yeast co-expressing both, 15 C (GC-FID) (mol percentage of total fatty acids)",[4],7.2
same,"18:2 content of cb5 mutant yeast co-expressing both, 28 C (GC-FID) (mol percentage of total fatty acids)",[4],6.4
B3,"18:3 content of cb5 mutant yeast co-expressing both, 15 C, 18:2 fed (GC-FID) (mol percentage of total fatty acids)",[3],12.6
same,"18:3 content of cb5 mutant yeast co-expressing both, 28 C, 18:2 fed (GC-FID) (mol percentage of total fatty acids)",[3],8.2
B4,"18:3 content of cb5 mutant yeast co-expressing both, 15 C, 18:2 fed (GC-FID) (mol percentage of total fatty acids)",[3],3.8
same,"18:3 content of cb5 mutant yeast co-expressing both, 28 C, 18:2 fed (GC-FID) (mol percentage of total fatty acids)",[3],3.9
